From US20140045176

Experiments:
Assay in all cases: cell_activity
[1] = system: ZFN-224 R (CCR5) (Artificial Sequence); conditions: as ZFN pair; T7E1, sorted RFP+GFP+ HEK293; unsorted 12%
[2] = system: CMAH-ZFN L (Artificial Sequence); conditions: as ZFN pair; T7E1, hygromycin-selected porcine ear cells; untreated 3.1%
[3] = system: Z891 L (CCR5 ZFN) (Artificial Sequence); conditions: as ZFN pair; T7E1, sorted RFP+GFP+ HEK293; unsorted 0.8%
[4] = system: Thumpd3 ZFN L (Artificial Sequence); conditions: as ZFN pair; T7E1, sorted RFP+GFP+ mouse iPS-derived fibroblasts; unsorted 0.5%
[5] = system: CMAH-ZFN R (Artificial Sequence); conditions: as ZFN pair; T7E1, hygromycin-selected porcine ear cells; untreated 3.1%
[6] = system: ZFN-224 L (CCR5) (Artificial Sequence); conditions: as ZFN pair; T7E1, sorted RFP+GFP+ HEK293; unsorted 12%
[7] = system: Thumpd3 ZFN R (Artificial Sequence); conditions: as ZFN pair; T7E1, sorted RFP+GFP+ mouse iPS-derived fibroblasts; unsorted 0.5%
[8] = system: Z891 R (CCR5 ZFN) (Artificial Sequence); conditions: as ZFN pair; T7E1, sorted RFP+GFP+ HEK293; unsorted 0.8%
[9] = system: CCR5 TALEN R (Artificial Sequence); conditions: as TALEN pair; T7E1, sorted RFP+GFP+ HEK293; unsorted 0.5%; 30 C culture
[10] = system: CCR5 TALEN L (Artificial Sequence); conditions: as TALEN pair; T7E1, sorted RFP+GFP+ HEK293; unsorted 0.5%; 30 C culture

AAACTGCAAAAG (double strand) [ZFN-224_R half-site]
activity [1]: 69 % mutation

AAGCAGGACCGA (double strand) [CMAH-ZFN_L half-site]
activity [2]: 12.1 % mutation

ATAGATGATGGG (double strand) [Z891_L half-site]
activity [3]: 8.7 % mutation

CGAGCACGCCGC (double strand) [Thumpd3_L half-site]
activity [4]: 46 % mutation

CGAGGATGGTGG (double strand) [CMAH-ZFN_R half-site]
activity [5]: 12.1 % mutation

GATGAGGATGAC (double strand) [ZFN-224_L half-site]
activity [6]: 69 % mutation

GGAGACCGGAAG (double strand) [Thumpd3_R half-site]
activity [7]: 46 % mutation

GTCGGGGAGAAG (double strand) [Z891_R half-site]
activity [8]: 8.7 % mutation

TAGTTTCTGAACTTCTCCCC (double strand) [TALEN_R half-site]
activity [9]: 4.3 % mutation

TGCATCAACCCCATCATC (double strand) [TALEN_L half-site]
activity [10]: 4.3 % mutation
